Test results reported in PMC8295500, “Co-Immobilized Capillary Enzyme Reactor Based on Beta-Secretase1 and Acetylcholinesterase: A Model for Dual-Ligand Screening” (Frontiers in Chemistry, 2021).

Substrate: CC(=O)OCC[N+](C)(C)C
Assay: purified protein
Assay type: biochemical, Homo sapiens

B1: acetylcholinesterase (huAChE) (Homo sapiens) (protein)
chain: EGREDAELLVTVRGGRLRGIRLKTPGGPVSAFLGIPFAEPPMGPRRFLPPEPKQPWSGVVDATTFQSVCYQYVDTLYPGFEGTEMWNPNRELSEDCLYLNVWTPYPRPTSPTPVLVWIYGGGFYSGASSLDVYDGRFLVQAERTVLVSMNYRVGAFGFLALPGSREAPGNVGLLDQRLALQWVQENVAAFGGDPTSVTLFGESAGAASVGMHLLSPPSRGLFHRAVLQSGAPNGPWATVGMGEARRRATQLAHLVGCPPGGTGGNDTELVACLRTRPAQVLVNHEWHVLPQESVFRFSFVPVVDGDFLSDTPEALINAGDFHGLQVLVGVVKDEGSYFLVYGAPGFSKDNESLISRAEFLAGVRVGVPQVSDLAAEAVVLHYTDWLHPEDPARLREALSDVVGDHNVVCPVAQLAGRLAAQGARVYAYVFEHRASTLSWPLWMGVPHGYEIEFIFGIPLDPSRNYTAEEKIFAQRLMRYWANFARTGDPNEPRDPKAPQWPPYTAGAQQYVSLDLRPLEVRRGLRAQACAFWNRFLPKLLSATDTLDEAERQWKAEFHRWSSYMVHWKNQFDHYSKQDRCSDL
notes: human recombinant, expressed in HEK 293 cells; immobilized on fused silica capillary
In the case of B1, the Km is reported as 23.3 ± 1 µM.
